In the supplement of paper PMC11316812:
± gives the standard deviation of the averaged measurements.

Columns and labels:
hTERT-HMEC = assay: percentage of EdU-negative (G0-arrested) nuclei per well, 72 h; higher = more G0 arrest; settings: reference: sequence is the full UniProt precursor, the tested protein was the secreted form or ectodomain
MCF7 = assay: as above; settings: reference: sequence is the full UniProt precursor, the tested protein was the secreted form or ectodomain
[1] = protein concentration 0.0225 µM
[2] = protein concentration 0.0294286 µM
[3] = protein concentration 0.294286 µM
[4] = protein concentration 0.014515 µM
[5] = protein concentration 0.14515 µM
[6] = protein concentration 0.00975 µM
[7] = protein concentration 0.0975 µM
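Further: secreted proteins added to cultured cells, EdU pulse at the end, nuclei found by Hoechst imaging, EdU status from nuclear versus surrounding ring intensity ratio, PBS as neutral control.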

Sequence	percentage of EdU-negative (hTERT-HMEC; [1])	percentage of EdU-negative (hTERT-HMEC; protein concentration 0.225 µM)	percentage of EdU-negative (MCF7; [1])	percentage of EdU-negative (MCF7; protein concentration 0.225 µM)	further results
MASEIHMTGPMCLIENTNGRLMANPEALKILSAITQPMVVVAIVGLYRTGKSYLMNKLAGKKKGFSLGSTVQSHTKGIWMWCVPHPKKPGHILVLLDTEGLGDVEKGDNQNDSWIFALAVLLSSTFVYNSIGTINQQAMDQLYYVTELTHRIRSKSSPDENENEVEDSADFVSFFPDFVWTLRDFSLDLEADGQPLTPDEYLTYSLKLKKGTSQKDETFNLPRLCIRKFFPKKKCFVFDRPVHRRKLAQLEKLQDEELDPEFVQQVADFCSYIFSNSKTKTLSGGIQVNGPRLESLVLTYVNAISSGDLPCMENAVLALAQIENSAAVQKAIAHYEQQMGQKVQLPTETLQELLDLHRDSEREAIEVFIRSSFKDVDHLFQKELAAQLEKKRDDFCKQNQEASSDRCSALLQVIFSPLEEEVKAGIYSKPGGYRLFVQKLQDLKKKYYEEPRKGIQAEEILQTYLKSKESMTDAILQTDQTLTEKEKEIEVERVKAESAQASAKMLQEMQRKNEQMMEQKERSYQEHLKQLTEKMENDRVQLLKEQERTLALKLQEQEQLLKEGFQKESRIMKNEIQDLQTKMRRRKACTIS	4.44 ± 0.5%	12.6 ± 1.4%	26.5 ± 3.6%	29.1 ± 1.2%	
MASHSGPSTSVLFLFCCLGGWLASHTLPVRLLRPSDDVQKIVEELQSLSKMLLKDVEEEKGVLVSQNYTLPCLSPDAQPPNNIHSPAIRAYLKTIRQLDNKSVIDEIIEHLDKLIFQDAPETNISVPTDTHECKRFILTISQQFSECMDLALKSLTSGAQQATT [Q6EBC2]	4.96 ± 0.56%	5.69 ± 0.58%	26.6 ± 1.1%	24.9 ± 1.8%	
MASLRVERAGGPRLPRTRVGRPAALRLLLLLGAVLNPHEALAQPLPTTGTPGSEGGTVKNYETAVQFCWNHYKDQMDPIEKDWCDWAMISRPYSTLRDCLEHFAELFDLGFPNPLAERIIFETHQIHFANCSLVQPTFSDPPEDVLLAMIIAPICLIPFLITLVVWRSKDSEAQA	4.96 ± 0.83%	5.12 ± 0.077%	26.4 ± 3.1%	23.7 ± 0.28%	
MASPGCLLCVLGLLLCGAASLELSRPHGDTAKKPIIGILMQKCRNKVMKNYGRYYIAASYVKYLESAGARVVPVRLDLTEKDYEILFKSINGILFPGGSVDLRRSDYAKVAKIFYNLSIQSFDDGDYFPVWGTCLGFEELSLLISGECLLTATDTVDVAMPLNFTGGQLHSRMFQNFPTELLLSLAVEPLTANFHKWSLSVKNFTMNEKLKKFFNVLTTNTDGKIEFISTMEGYKYPVYGVQWHPEKAPYEWKNLDGISHAPNAVKTAFYLAEFFVNEARKNNHHFKSESEEEKALIYQFSPIYTGNISSFQQCYIFD					percentage of EdU-negative (hTERT-HMEC; [2]): 4.45 ± 0.47%; percentage of EdU-negative (hTERT-HMEC; [3]): 4.7 ± 0.28%; percentage of EdU-negative (MCF7; [2]): 25 ± 0.49%; percentage of EdU-negative (MCF7; [3]): 25.9 ± 2.2%
MASPGCLWLLAVALLPWTCASRALQHLDPPAPLPLVIWHGMGDSCCNPLSMGAIKKMVEKKIPGIYVLSLEIGKTLMEDVENSFFLNVNSQVTTVCQALAKDPKLQQGYNAMGFSQGGQFLRAVAQRCPSPPMINLISVGGQHQGVFGLPRCPGESSHICDFIRKTLNAGAYSKVVQERLVQAEYWHDPIKEDVYRNHSIFLADINQERGINESYKKNLMALKKFVMVKFLNDSIVDPVDSEWFGFYRSGQAKETIPLQETSLYTQDRLGLKEMDNAGQLVFLATEGDHLQLSEEWFYAHIIPFLG	4.49 ± 0.2%	9.52 ± 0.25%	25.6 ± 1.6%	26.4 ± 0.39%	
MASRLTLLTLLLLLLAGDRASSNPNATSSSSQDPESLQDRGEGKVATTVISKMLFVEPILEVSSLPTTNSTTNSATKITANTTDEPTTQPTTEPTTQPTIQPTQPTTQLPTDSPTQPTTGSFCPGPVTLCSDLESHSTEAVLGDALVDFSLKLYHAFSAMKKVETNMAFSPFSIASLLTQVLLGAGENTKTNLESILSYPKDFTCVHQALKGFTTKGVTSVSQIFHSPDLAIRDTFVNASRTLYSSSPRVLSNNSDANLELINTWVAKNTNNKISRLLDSLPSDTRLVLLNAIYLSAKWKTTFDPKKTRMEPFHFKNSVIKVPMMNSKKYPVAHFIDQTLKAKVGQLQLSHNLSLVILVPQNLKHRLEDMEQALSPSVFKAIMEKLEMSKFQPTLLTLPRIKVTTSQDMLSIMEKLEFFDFSYDLNLCGLTEDPDLQVSAMQHQTVLELTETGVEAAAASAISVARTLLVFEVQQPFLFVLWDQQHKFPVFMGRVYDPRA					percentage of EdU-negative (hTERT-HMEC; [4]): 5.48 ± 0.2%; percentage of EdU-negative (hTERT-HMEC; [5]): 5.33 ± 0.56%; percentage of EdU-negative (MCF7; [4]): 25.6 ± 1.5%; percentage of EdU-negative (MCF7; [5]): 26 ± 0.75%
MASRWAVQLLLVAAWSMGCGEALKCYTCKEPMTSASCRTITRCKPEDTACMTTLVTVEAEYPFNQSPVVTRSCSSSCVATDPDSIGAAHLIFCCFRDLCNSEL	5.43 ± 0.94%	5.61 ± 1%	23.5 ± 2.8%	26.6 ± 1.9%	
MASSWKLMLFLSVTMCLSEYSKSLPGLSTSYAALLRIKKSSSSSLFGSKTRPRYSSPSLGTLSASSPSWLGAAQNYYSPINLYHSSDAFKQDESVDYGPVFVQEPDDIIFPTDSDEKKVALNCEVRGNPVPSYRWLRNGTEIDLESDYRYSLIDGTFIISNPSEAKDSGHYQCLATNTVGSILSREATLQFAYLGNFSGRTRSAVSVREGQGVVLMCSPPPHSPEIIYSWVFNEFPSFVAEDSRRFISQETGNLYISKVQTSDVGSYICLVKNTVTNARVLSPPTPLTLRNDGVMGEYEPKIEVHFPFTVTAAKGTTVKMECFALGNPVPTITWMKVNGYIPSKARLRKSQAVLEIPNVQLDDAGIYECRAENSRGKNSFRGQLQVYTYPHWVEKLNDTQLDSGSPLRWECKATGKPRPTYRWLKNGVPLSPQSRVEMVNGVLMIHNVNQSDAGMYQCLAENKYGAIYASAELKILASAPTFALNQLKKTIIVTKDQEVVIECKPQGSPKPTISWKKGDRAVRENKRIAILPDGSLRILNASKSDEGKYVCRGENVFGSAEIIASLSVKEPTRIELTPKRTELTVGESIVLNCKAIHDASLDVTFYWTLKGQPIDFEEEGGHFESIRAQASSADLMIRNILLMHAGRYGCRVQTTADSVSDEAELLVRGPPGPPGIVIVEEITESTATLSWSPAADNHSPISSYNLQARSPFSLGWQTVKTVPEIITGDMESAMAVDLNPWVEYEFRVVATNPIGTGDPSTPSRMIRTNEAVPKTAPTNVSGRSGRRHELVIAWEPVSEEFQNGEGFGYIVAFRPNGTRGWKEKMVTSSEASKFIYRDESVPPLTPFEVKVGVYNNKGDGPFSQIVVICSAEGEPSAAPTDVKATSVSVSEILVAWKHIKESLGRPQGFEVGYWKDMEQEDTAETVKTRGNESFVILTGLEGNTLYHFTVRAYNGAGYGPPSSEVSATTKKSPPSQAPSNLRWEQQGSQVSLGWEPVIPLANESEVVGYKVFYRQEGHSNSQVIETQKLQAVVPLPDAGVYIIEVRAYSEGGDGTASSQIRVPSYSGGKITSAQSTLHSLSTSSSSVTLLLALMIPSTSW					percentage of EdU-negative (hTERT-HMEC; [6]): 4.88 ± 0.2%; percentage of EdU-negative (hTERT-HMEC; [7]): 10.4 ± 0.39%; percentage of EdU-negative (MCF7; [6]): 26.6 ± 0.15%; percentage of EdU-negative (MCF7; [7]): 27.7 ± 2.5%
MASTSYDYCRVPMEDGDKRCKLLLGIGILVLLIIVILGVPLIIFTIKANSEACRDGLRAVMECRNVTHLLQQELTEAQKGFQDVEAQAATCNHTVMALMASLDAEKAQGQKKVEELEGEITTLNHKLQDASAEVERLRRENQVLSVRIADKKYYPSSQDSSSAAAPQLLIVLLGLSALLQ	4.74 ± 0.69%	4.84 ± 0.58%	26.3 ± 3.5%	26.7 ± 3.2%	
MASVVLPSGSQCAAAAAAAAPPGLRLRLLLLLFSAAALIPTGDGQNLFTKDVTVIEGEVATISCQVNKSDDSVIQLLNPNRQTIYFRDFRPLKDSRFQLLNFSSSELKVSLTNVSISDEGRYFCQLYTDPPQESYTTITVLVPPRNLMIDIQKDTAVEGEEIEVNCTAMASKPATTIRWFKGNTELKGKSEVEEWSDMYTVTSQLMLKVHKEDDGVPVICQVEHPAVTGNLQTQRYLEVQYKPQVHIQMTYPLQGLTREGDALELTCEAIGKPQPVMVTWVRVDDEMPQHAVLSGPNLFINNLNKTDNGTYRCEASNIVGKAHSDYMLYVYDPPTTIPPPTTTTTTTTTTTTTILTIITDSRAGEEGSIRAVDHAVIGGVVAVVVFAMLCLLIILGRYFARHKGTYFTHEAKGADDAADADTAIINAEGGQNNSEEKKEYFI [Q9BY67]	4.74 ± 0.29%	5.2 ± 0.79%	24.5 ± 1.3%	24.7 ± 1.1%	
